Reference: PMC4066749, “A sequence-based approach for prediction of CsrA/RsmA targets in bacteria with experimental validation in Pseudomonas aeruginosa” (Nucleic Acids Research, 2014)

Biological target: the molecule itself
Assay: SEC; Superdex 75 HR 10/30 analytical column calibrated with a Gel Filtration LMW Calibration Kit; absorbance at 280 nm; apparent molecular weights from elution volumes

Protein	binding result	stoichiometry N
RsmA-R44A mutant (natural protein, RsmA of Pseudomonas aeruginosa with R44A; also called the mutant) MLILTRRVGETLMVGDDVTVTVLGVKGNQVRIGVNAPKEVAVHAEEIYQRIQKEKDQEPNH	binds	
RsmA (regulator of secondary metabolism), His-tagged (natural protein, also called CsrA homolog; wild-type RsmA protein; source: purification from E. coli) not shown		2
